Molecular target: human Replication Protein A (RPA) complex (human) (UniProt P27694)
Sequence (P27694 whole entry, chain 1 of 3): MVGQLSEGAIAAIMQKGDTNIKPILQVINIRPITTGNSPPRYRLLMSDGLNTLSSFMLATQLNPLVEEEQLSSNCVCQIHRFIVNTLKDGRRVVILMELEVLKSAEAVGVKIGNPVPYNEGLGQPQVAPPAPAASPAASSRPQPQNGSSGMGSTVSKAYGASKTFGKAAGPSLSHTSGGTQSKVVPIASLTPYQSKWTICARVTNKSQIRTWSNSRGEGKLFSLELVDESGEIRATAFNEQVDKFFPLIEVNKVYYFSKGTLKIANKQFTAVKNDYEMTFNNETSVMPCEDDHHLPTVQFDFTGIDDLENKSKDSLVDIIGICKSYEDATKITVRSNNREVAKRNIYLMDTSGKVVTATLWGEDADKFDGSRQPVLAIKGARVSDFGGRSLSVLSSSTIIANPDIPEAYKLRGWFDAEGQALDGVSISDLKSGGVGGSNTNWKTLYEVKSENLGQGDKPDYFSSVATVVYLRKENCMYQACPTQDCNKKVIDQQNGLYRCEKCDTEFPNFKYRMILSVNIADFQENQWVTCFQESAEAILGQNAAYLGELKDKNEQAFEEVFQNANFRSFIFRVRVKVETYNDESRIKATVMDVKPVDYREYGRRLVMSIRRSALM
Sequence (P15927 whole entry, chain 2 of 3, further chain): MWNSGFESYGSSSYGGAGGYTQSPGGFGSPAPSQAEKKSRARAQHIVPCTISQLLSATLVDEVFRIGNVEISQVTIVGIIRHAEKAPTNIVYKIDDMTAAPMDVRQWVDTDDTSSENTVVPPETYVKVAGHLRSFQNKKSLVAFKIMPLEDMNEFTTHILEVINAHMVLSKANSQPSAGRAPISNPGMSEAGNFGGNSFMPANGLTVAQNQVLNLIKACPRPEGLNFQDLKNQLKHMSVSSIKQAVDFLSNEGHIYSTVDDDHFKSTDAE
Sequence (P35244 whole entry, chain 3 of 3, further chain): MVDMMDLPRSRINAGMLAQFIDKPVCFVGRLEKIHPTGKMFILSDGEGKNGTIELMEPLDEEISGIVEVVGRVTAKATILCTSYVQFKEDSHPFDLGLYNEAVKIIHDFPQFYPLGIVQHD

Sequence of Human DNA helicase B (HELB) (Q8NG08 whole entry): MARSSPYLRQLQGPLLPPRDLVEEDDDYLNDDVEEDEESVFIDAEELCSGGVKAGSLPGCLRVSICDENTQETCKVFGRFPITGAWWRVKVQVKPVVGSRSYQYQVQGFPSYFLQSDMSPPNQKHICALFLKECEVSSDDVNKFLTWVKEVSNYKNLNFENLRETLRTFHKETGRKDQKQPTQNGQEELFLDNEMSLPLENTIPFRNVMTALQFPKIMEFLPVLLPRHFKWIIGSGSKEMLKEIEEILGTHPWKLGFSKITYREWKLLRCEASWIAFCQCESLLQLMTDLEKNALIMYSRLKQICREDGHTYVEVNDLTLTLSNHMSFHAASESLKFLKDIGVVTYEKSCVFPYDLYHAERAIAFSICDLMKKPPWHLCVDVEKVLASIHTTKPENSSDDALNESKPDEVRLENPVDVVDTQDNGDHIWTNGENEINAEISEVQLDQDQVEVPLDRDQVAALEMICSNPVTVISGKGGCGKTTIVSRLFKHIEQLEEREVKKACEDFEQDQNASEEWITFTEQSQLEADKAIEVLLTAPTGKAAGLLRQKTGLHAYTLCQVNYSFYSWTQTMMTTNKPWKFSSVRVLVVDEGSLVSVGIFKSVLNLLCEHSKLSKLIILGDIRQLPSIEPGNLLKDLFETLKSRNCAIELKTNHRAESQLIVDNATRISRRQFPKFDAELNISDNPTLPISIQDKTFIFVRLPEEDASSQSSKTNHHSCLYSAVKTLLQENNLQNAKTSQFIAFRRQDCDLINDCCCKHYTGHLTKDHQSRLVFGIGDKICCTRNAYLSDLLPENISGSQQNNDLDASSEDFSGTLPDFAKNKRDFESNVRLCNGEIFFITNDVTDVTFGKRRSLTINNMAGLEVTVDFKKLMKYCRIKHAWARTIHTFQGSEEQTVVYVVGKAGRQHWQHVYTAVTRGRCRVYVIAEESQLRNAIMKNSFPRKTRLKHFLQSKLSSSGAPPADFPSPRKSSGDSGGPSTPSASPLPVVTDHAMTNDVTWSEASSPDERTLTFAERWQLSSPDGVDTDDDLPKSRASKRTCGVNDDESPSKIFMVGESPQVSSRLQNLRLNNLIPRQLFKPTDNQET

observed rate of ATP hydrolysis by HELB at low φX174 ssDNA (0.1 × KDNA), RPA titrated from one RPA per 200 nt to one RPA per 20 nt: 8 fold
Substance: Human DNA helicase B (HELB) (from UniProt Q8NG08 1-1087) (enzyme)
